Test results taken from article PMC4303685.
Each block holds one substance with its values, some of them ahead of it.

What was measured:
complement C3c (human) [1] = molecular target: complement C3c (human) (UniProt P01024); assay: SPR; Biacore X100, C3c amine-coupled to CM5 chip, C3d as analyte, 25 °C, 30 μl/min, steady state analysis; 10 mM Hepes, 50 mM NaCl, pH 7.4
[2] = molecular target: recombinant wild-type C3d (E1032) (human) (UniProt P01024); assay: AUC; sedimentation velocity, c(s) analysis (SEDFIT), 50,000 rpm, 20 °C; 10 mM Hepes, 137 mM NaCl, pH 7.4; monomer to dimer, KD estimated from peak integration
[3] = molecular target: recombinant wild-type C3d (E1032) (human) (UniProt P01024); assay: AUC; sedimentation velocity, c(s) analysis (SEDFIT), 50,000 rpm, 20 °C; 10 mM Hepes, 50 mM NaCl, pH 7.4; monomer to dimer, KD estimated
[4] = molecular target: recombinant wild-type C3d (E1032) (human) (UniProt P01024); assay: AUC; sedimentation velocity, c(s) analysis; PBS in 2H2O (137 mM NaCl, pH 7.4); monomer to dimer, proportions by peak integration
complement C3c (human) [5] = molecular target: complement C3c (human) (UniProt P01024); assay: AUC; sedimentation velocity, c(s) analysis (SEDFIT), 50,000 rpm, 20 °C; 10 mM Hepes, 137 mM NaCl, pH 7.4; monomer to dimer, KD estimated from peak integration
complement C3c (human) [6] = molecular target: complement C3c (human) (UniProt P01024); assay: AUC; sedimentation velocity, c(s) analysis (SEDFIT), 50,000 rpm, 20 °C; 10 mM Hepes, 50 mM NaCl, pH 7.4; monomer to dimer, KD estimated
complement C3c (human) [7] = molecular target: complement C3c (human) (UniProt P01024); assay: AUC; sedimentation velocity, c(s) analysis; PBS in 2H2O (137 mM NaCl, pH 7.4); monomer to dimer, proportions by peak integration

- fold less binding than wild-type C3d (complement C3c (human) [1]): 10 fold
Substance: mutant C3d (A1032), C3d E1032A (from UniProt P01024 996-1287) (domain or fragment)

- dimer, percent of the total [2]: 10%
- stoichiometry N [2]: 2
- Kd (complement C3c (human) [1]): 51 µM
- Kd [3]: 25 µM
- stoichiometry N [3]: 2
- dimer proportion [4]: 12%
- stoichiometry N [4]: 2
Substance: recombinant wild-type C3d (E1032) (from UniProt P01024 996-1287) (domain or fragment)

- Kd (complement C3c (human) [5]): 60 µM
- dimer, percent of the total (complement C3c (human) [5]): 6%
- stoichiometry N (complement C3c (human) [5]): 2
- Kd (complement C3c (human) [6]): 50 µM
- stoichiometry N (complement C3c (human) [6]): 2
- dimer proportion (complement C3c (human) [7]): 7%
- stoichiometry N (complement C3c (human) [7]): 2
Substance: complement C3c (from UniProt P01024 23-667; P01024 749-954; P01024 1321-1663) (domain or fragment)
